Results reported in IntAct's records for PubMed 25966461.

B1: Protein SSD1 (Saccharomyces cerevisiae), P24276 (parent)
chain: MSKNSNVNNNRSQEPNNMFVQTTGGGKNAPKQIHVAHRRSQSELTNLMIEQFTLQKQLEQVQAQQQQLMAQQQQLAQQTGQYLSGNSGSNNHFTPQPPHPHYNSNGNSPGMSAGGSRSRTHSRNNSGYYHNSYDNNNNSNNPGSNSHRKTSSQSSIYGHSRRHSLGLNEAKKAAAEEQAKRISGGEAGVTVKIDSVQADSGSNSTTEQSDFKFPPPPNAHQGHRRATSNLSPPSFKFPPNSHGDNDDEFIATSSTHRRSKTRNNEYSPGINSNWRNQSQQPQQQLSPFRHRGSNSRDYNSFNTLEPPAIFQQGHKHRASNSSVHSFSSQGNNNGGGRKSLFAPYLPQANIPELIQEGRLVAGILRVNKKNRSDAWVSTDGALDADIYICGSKDRNRALEGDLVAVELLVVDDVWESKKEKEEKKRRKDASMQHDLIPLNSSDDYHNDASVTAATSNNFLSSPSSSDSLSKDDLSVRRKRSSTINNDSDSLSSPTKSGVRRRSSLKQRPTQKKNDDVEVEGQSLLLVEEEEINDKYKPLYAGHVVAVLDRIPGQLFSGTLGLLRPSQQANSDNNKPPQSPKIAWFKPTDKKVPLIAIPTELAPKDFVENADKYSEKLFVASIKRWPITSLHPFGILVSELGDIHDPDTEIDSILRDNNFLSNEYLDQKNPQKEKPSFQPLPLTAESLEYRRNFTDTNEYNIFAISELGWVSEFALHVRNNGNGTLELGCHVVDVTSHIEEGSSVDRRARKRSSAVFMPQKLVNLLPQSFNDELSLAPGKESATLSVVYTLDSSTLRIKSTWVGESTISPSNILSLEQLDEKLSTGSPTSYLSTVQEIARSFYARRINDPEATLLPTLSLLESLDDEKVKVDLNILDRTLGFVVINEIKRKVNSTVAEKIYTKLGDLALLRRQMQPIATKMASFRKKIQNFGYNFDTNTADELIKGVLKIKDDDVRVGIEILLFKTMPRARYFIAGKVDPDQYGHYALNLPIYTHFTAPMRRYADHVVHRQLKAVIHDTPYTEDMEALKITSEYCNFKKDCAYQAQEQAIHLLLCKTINDMGNTTGQLLTMATVLQVYESSFDVFIPEFGIEKRVHGDQLPLIKAEFDGTNRVLELHWQPGVDSATFIPADEKNPKSYRNSIKNKFRSTAAEIANIELDKEAESEPLISDPLSKELSDLHLTVPNLRLPSASDNKQNALEKFISTTETRIENDNYIQEIHELQKIPILLRAEVGMALPCLTVRALNPFMKRV
B2: Metallothionein expression activator (Saccharomyces cerevisiae), P21192 (parent)
chain: MDNVVDPWYINPSGFAKDTQDEEYVQHHDNVNPTIPPPDNYILNNENDDGLDNLLGMDYYNIDDLLTQELRDLDIPLVPSPKTGDGSSDKKNIDRTWNLGDENNKVSHYSKKSMSSHKRGLSGTAIFGFLGHNKTLSISSLQQSILNMSKDPQPMELINELGNHNTVKNNNDDFDHIRENDGENSYLSQVLLKQQEELRIALEKQKEVNEKLEKQLRDNQIQQEKLRKVLEEQEEVAQKLVSGATNSNSKPGSPVILKTPAMQNGRMKDNAIIVTTNSANGGYQFPPPTLISPRMSNTSINGSPSRKYHRQRYPNKSPESNGLNLFSSNSGYLRDSELLSFSPQNYNLNLDGLTYNDHNNTSDKNNNDKKNSTGDNIFRLFEKTSPGGLSISPRINGNSLRSPFLVGTDKSRDDRYAAGTFTPRTQLSPIHKKRESVVSTVSTISQLQDDTEPIHMRNTQNPTLRNANALASSSVLPPIPGSSNNTPIKNSLPQKHVFQHTPVKAPPKNGSNLAPLLNAPDLTDHQLEIKTPIRNNSHCEVESYPQVPPVTHDIHKSPTLHSTSPLPDEIIPRTTPMKITKKPTTLPPGTIDQYVKELPDKLFECLYPNCNKVFKRRYNIRSHIQTHLQDRPYSCDFPGCTKAFVRNHDLIRHKISHNAKKYICPCGKRFNREDALMVHRSRMICTGGKKLEHSINKKLTSPKKSLLDSPHDTSPVKETIARDKDGSVLMKMEEQLRDDMRKHGLLDPPPSTAAHEQNSNRTLSNETDAL
B3: Serine/threonine-protein kinase CBK1 (Saccharomyces cerevisiae), P53894 (parent)
chain: MYNSSTNHHEGAPTSGHGYYMSQQQDQQHQQQQQYANEMNPYQQIPRPPAAGFSSNYMKEQGSHQSLQEHLQRETGNLGSGFTDVPALNYPATPPPHNNYAASNQMINTPPPSMGGLYRHNNNSQSMVQNGNGSGNAQLPQLSPGQYSIESEYNQNLNGSSSSSPFHQPQTLRSNGSYSSGLRSVKSFQRLQQEQENVQVQQQLSQAQQQNSRQQQQQLQYQQQQQQQQQQQHMQIQQQQQQQQQQQQSQSPVQSGFNNGTISNYMYFERRPDLLTKGTQDKAAAVKLKIENFYQSSVKYAIERNERRVELETELTSHNWSEERKSRQLSSLGKKESQFLRLRRTRLSLEDFHTVKVIGKGAFGEVRLVQKKDTGKIYAMKTLLKSEMYKKDQLAHVKAERDVLAGSDSPWVVSLYYSFQDAQYLYLIMEFLPGGDLMTMLIRWQLFTEDVTRFYMAECILAIETIHKLGFIHRDIKPDNILIDIRGHIKLSDFGLSTGFHKTHDSNYYKKLLQQDEATNGISKPGTYNANTTDTANKRQTMVVDSISLTMSNRQQIQTWRKSRRLMAYSTVGTPDYIAPEIFLYQGYGQECDWWSLGAIMYECLIGWPPFCSETPQETYRKIMNFEQTLQFPDDIHISYEAEDLIRRLLTHADQRLGRHGGADEIKSHPFFRGVDWNTIRQVEAPYIPKLSSITDTRFFPTDELENVPDSPAMAQAAKQREQMTKQGGSAPVKEDLPFIGYTYSRFDYLTRKNAL
partner: B1 chain

Variants of: B1
Settings: with cbk1_yeast CBK1, P53894

Variant	effect of a mutation on the interaction
F211A	disrupting interaction strength
F211W	disrupting interaction strength
K212F	disrupting interaction strength
K212A	disrupting interaction strength
K212T	disrupting interaction strength
K212D	disrupting interaction strength
K212M	disrupting interaction strength
K212Q	disrupting interaction strength
K212S	disrupting interaction strength
F213Y	disrupting interaction strength
F213A	disrupting interaction strength
F213W	disrupting interaction strength
P214A	disrupting interaction strength

Variants of: B2
Settings: with cbk1_yeast CBK1, P53894

Variant	effect of a mutation on the interaction
Y283A	disrupting interaction strength
N277A	decreasing interaction strength
I272A	decreasing interaction strength
P286A	disrupting interaction strength
F285A	disrupting interaction strength

Variants of: B3
Settings: with ssd1_yeast SSD1, P24276

Variant	effect of a mutation on the interaction
Y687A	disrupting interaction strength
